# From patent US20040235717A1, “Suppression of androgen receptor transactivation through new pathways to ar and ar coactivators and repressors” (priority 2001, published 2004)
# “Also recorded” adds a separate entry of the source.
# What was measured:
# [1] = molecular target: T1, interaction between AR and ARA70 (Homo sapiens, UniProt P10275); assay: Mammalian two-hybrid assay GAL4-ARA70 / VP16-AR in DU145 cells (pG5CAT); type: cell-based; details: 1 nM DHT
# T1 construct: VP16 fused to the AR aa 36-918 (VP16-AR); expressed in transfected cells; host or cells: DU145
# T1 sequence (P10275 36-920): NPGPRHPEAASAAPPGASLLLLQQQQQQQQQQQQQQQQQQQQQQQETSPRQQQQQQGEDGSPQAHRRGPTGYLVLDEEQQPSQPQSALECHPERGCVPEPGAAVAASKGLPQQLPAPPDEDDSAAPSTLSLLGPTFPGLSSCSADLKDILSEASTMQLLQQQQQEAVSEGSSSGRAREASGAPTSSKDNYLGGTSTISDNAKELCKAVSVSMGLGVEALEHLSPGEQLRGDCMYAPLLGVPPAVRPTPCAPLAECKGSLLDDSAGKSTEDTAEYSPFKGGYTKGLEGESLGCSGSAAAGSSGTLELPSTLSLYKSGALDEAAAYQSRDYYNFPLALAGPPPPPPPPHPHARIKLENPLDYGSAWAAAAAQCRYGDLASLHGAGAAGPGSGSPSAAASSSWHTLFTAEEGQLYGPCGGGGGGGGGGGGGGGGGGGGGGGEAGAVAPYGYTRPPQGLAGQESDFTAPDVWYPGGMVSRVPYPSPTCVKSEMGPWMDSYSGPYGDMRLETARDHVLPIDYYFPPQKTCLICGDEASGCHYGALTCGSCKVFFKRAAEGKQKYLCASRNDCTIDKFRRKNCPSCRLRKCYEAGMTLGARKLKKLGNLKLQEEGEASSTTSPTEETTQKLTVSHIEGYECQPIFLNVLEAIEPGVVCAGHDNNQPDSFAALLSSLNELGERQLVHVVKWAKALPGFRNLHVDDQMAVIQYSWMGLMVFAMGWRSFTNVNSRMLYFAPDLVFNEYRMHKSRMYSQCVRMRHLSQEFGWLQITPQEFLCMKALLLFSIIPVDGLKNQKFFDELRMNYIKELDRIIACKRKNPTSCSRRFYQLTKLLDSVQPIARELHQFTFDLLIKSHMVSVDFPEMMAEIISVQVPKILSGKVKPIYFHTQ
# Description: 257. […] Onate, S. A. et al., Science 270, 1354-1357 (1995); Voegel, J. J. et al., EMBO J. 15, 3667-3675 (1996); Yeh, S. et al., Proc. Natl. Acad. Sci. USA 93, 5517-5521(1996); Yeh, S. et al., Proc. Natl. Acad. Sci. USA 95, 5527-5532 (1998); Fujimoto, N. et al., J. BioI. Chem. 274, 8316-8321 (1999); Miyamoto, H. et al., Proc. Natl. Acad. Sci. USA 95 11083-11088 (1998); Kang, H. Y. et al., J. BioI. Chem. 274, 8570-8576 (1999); Yeh, S. et al., Biochem. Biophys. Res. Commun. 248, 361-367 (1998). […] Yeh, S. et al., Proc. Natl. Acad. Sci. USA 93, 5517-5521(1996); Yeh, S. et al., Proc. Natl. Acad. Sci. USA 95, 5527-5532 (1998). […] The interaction between AR and ARA70 was determined by CAT assay using pG5CAT as reporter. […] In contrast, the addition of […] between the AR and ARA70 (FIG. 4a, lane 2 vs 5 and lane 6 vs 8). Similar repression effects also occurred when we replaced ARA70 with other AR coactivators, such as ARA54 or TIF2. Kang, H. Y. et al., J. BioI. Chem. 274, 8570-8576 (1999); Voegel, J. J. et al., EMBO J. 15, 3667-3675 (1996). cAkt and dAkt, however, had very little effect on the interaction between GAL4 fused AR-LBD653-918 and VP16-ARA 70 (VP16 fused ARA70), VP16-ARA54, or VP16-TIF2.
# GAL4DBD fused to ARA70 aa 176-401 (GAL4-ARA70), and VP16 fused to the AR aa 36-918 (VP16-AR) were transfected into DU145 cells in the presence or absence of cAkt, dAkt, and LY294002.
# AR protein stability = assay: Pulse-chase labeling of AR in COS-1 cells; type: cell-based; details: LY294002 20 μM
# Procedure: 30. […] The cells were harvested for Western blot analysis. […] Western blot analysis was performed and AR and PTEN were detected by AR antibody or PTEN antibody. (C) PTEN-C1 cells were treated with 4 μg/ml Dox in 10% CDS media for 48 h. Total RNA was prepared and Northern blot analysis was performed using [^32P]-dCTP-labeled AR (aa, 1-389) as a probe. (D) COS-1 cells were transfected with AR along with pCDNA3 or PTEN in 10% CDS media for 16 h. […] The cell extracts were immunoprecipitated with AR antibody and subjected to SDS-PAGE followed by autoradiography. Data were from three identical results. (E) COS-1 cells were transfected with AR along with pCDNA3 or dAkt in 10% CDS media for 16 h, pulsed with [^35S]-methionine for 45 min, and then harvested at different chase times as indicated. LY294002 (20 μM) was added 2 h before pulsing with [^35S]-methionine.
# 317. Pulse-chase experiments were performed as described (Lo et al. (1999) Nat Cell Biol 1, 472-8) with some modifications. Briefly, COS-1 cells were transfected with pSG5-AR in combination with pCDNA3 or pCDNA3 PTEN in 10% CDS media for […]. Cells were grown under serum starvation conditions for 2 h in methionine/cysteine-deficient medium, and then the cells were pulsed for 45 min with 200 μCi/ml [^35S]-methionine/cysteine (NEN). […]
substance,measurement,setting,value
"dAkt: dominant-negative Akt, a kinase deficient mutant, K179A",Interaction between AR and ARA70 (CAT activity),[1],further enhanced the interaction of AR and ARA70; also recorded: further enhanced the interaction between the AR and ARA70
same,AR degradation,AR protein stability,did not promote AR degradation
